Experiments:
[1] = Photodynamic activity of the photosensitiser
Ovarialcarcinom = assay: Whole-body distribution of radioiodine-labelled agent in tumour-bearing rat (Fig. 4, Fig. 5); type: in vivo, BD IX Ratte
Protocol: (§1) Bei allen diesen Anwendungsversuchen wurden immer 300 µC = 11,1 MBq verabreicht. ES zeigten sich mit den eingesetzten Mitteln, nämlich 1a und 1c und die Verbindung aus Beispiel 2 eine Konzentration von mindestens 30 % des Mittels an der gewünschten Stelle, also am Tumor. Die beigefügte Fig. 4 zeigt das Bild einer BDIX-Rattemit Ovarialcarcinom 42 h nach Injektion, die mit ¹³¹J-HOPAD-CMPEG, also ¹³¹J-Hydroxyphenyl-1-aminomethan-1,1-diphosphonat- Cyanurchlorid aktiviertes Polyethylenglykol (n = ca. 100 bis 110) in einer Menge von 300 µC behandelt war. Das Bild zeigt, daß ganz unten, im Tumor ca. 30 +/- 2 % des Mittels konzentriert sind, während in der Mitte die Leber ca. 10 % zeigt und die Schilddrüse, die oberhalb der Leber sichtbar ist, weit weniger als 2 % des Mittels aufgenommen hat. Diese %-Angaben beziehen sich auf die Gesamtmenge an die mit radiojadmarkierten Mittel im Gesamtkörper der Ratte.
Die beigefügte Fig. 5 zeigt die Messung einer mit ¹³¹I TOP-(CMPEG)4 behandelten BD IX Ratte (auch hier Ovarialcarcinom). Es zeigt sich ein ähnliches Ergebnis wie das von Fig. 4.
Von der gesamten Körperaktivität an radioaktivem Jod finden sich nach 150 h etwa 23 % im Tumor, etwa 12 % in der Leber, etwa 5 % im Blut und etwa 3 - 4 % jeweils in den Muskeln und in der Schilddrüse. Der Rest ist natürlich, wie auch bei der Aufnahme von Fig 4, über den restlichen Körper verteilt.

[2] = test system: experimentelle Tumoren und Xenotransplantate, human; assay: Accumulation (concentration) of radiolabelled agents in experimental tumours and human xenografts; type: in vivo, Ratte; Nacktmaus; conditions: 300 µC = 11,1 MBq administered; 1a and 1c in all tumours/xenografts of the 2nd table, compound of Beispiel 2 only in Walker Carcinosarcom, Osteosarcom, Ovarialcarcinom (O-342)
Excerpt: Schließlich wurden für CT-Untersuchungen die folgenden Verbindungen gemäß Beispiel 2 hergestellt: • 4a) Tri-jod-phenol-CMPEG • 4b) Tri-jod-benzoesäure-AMPEG • 4c) Iodoxaminsäure-(AMPEG)₂ Die Anreicherung (Konzentrierung) dieser Mittel wurde an folgenden experimentellen Tumoren und an folgenden Tiermodellen geprüft:
Alle diese experimentellen Tumoren und Xenotransplantate wurden mit den Verbindungen a und c gemäß Beispiel 1 (also 1a und 1c) und drei davon, nämlich das Walker Carcinosarcom, das Osteosarcom und das Ovarialcarcinom (O-342) auch mit dem Diphosphonat gemäß Beispiel 2 untersucht.
as §1

[3] = BDIX rat with Ovarialcarcinom, 42 h after injection, 300 µC, % of total labelled agent in whole body
[4] = BD IX rat, Ovarialcarcinom, after 150 h, % of total body activity of radioactive iodine

Substance: Tetra-(4 Amino-phenoxy)-phthalocyanin -CMPEG [TAPPC-CMPEG]
- "bleaching" [1]: kaum "bleaching" festzustellen
- fotodynamische Aktivität [1]: sehr hohe fotodynamische Aktivität bis über 720 nm

Substance: ¹³¹-I-Hydroxyphenylaminomethandiphosphonat- (CMPEG)₂ [Verbindung aus Beispiel 2]
- Leber (Ovarialcarcinom; [3]): ca. 10%
- Schilddrüse (Ovarialcarcinom; [3]): < 2%
- im Tumor konzentriert (Ovarialcarcinom; [3]): ca. 30 +/- 2%
- Konzentration des Mittels an der gewünschten Stelle, also am Tumor [2]: ≥ 30%

Substance: ¹³¹I-Tetra(hydroxyphenyl)-porphin-(CMPEG)₄ [1a]
- im Blut (Ovarialcarcinom; [4]): ~5%
- im Tumor (Ovarialcarcinom; [4]): ~23%
- in den Muskeln (Ovarialcarcinom; [4]): 3 - 4%
- in der Leber (Ovarialcarcinom; [4]): ~12%
- in der Schilddrüse (Ovarialcarcinom; [4]): 3 - 4%
- Konzentration des Mittels an der gewünschten Stelle, also am Tumor [2]: ≥ 30%

Substance: ¹¹¹-In-Tetra-(hydroxyphenoxy)-phthalocyanin-(CMPEG)₄ [1c]
- Konzentration des Mittels an der gewünschten Stelle, also am Tumor [2]: ≥ 30%

From patent publication EP0485563B1, “POLYETHER-SUBSTITUTED TUMOR AGENTS” (Deutsches Krebsforschungszentrum Stiftung des öffentlichen …, priority 1990, dated 1991)
